The text below walks through data of US20160303258A1.

The term Kd denotes the constant that tells how readily two partners part at equilibrium. One may read the IC50 as the midpoint of a concentration-inhibition curve. The low end stands for greater potency, the high end for weaker potency. Broadly, the EC50 is the concentration giving half of the maximal effect. The low end stands for a more potent agent, the high end for a less potent agent.

Where no end group is shown, it is not given here. The star is where a group is joined. DOTA = O=C(O)CN1CCN(CC(=O)O)CCN(CC(=O)*)CCN(CC(=O)O)CC1; Ahx = NCCCCCC(=O)O

The target in test [1] is guanylyl cyclase C (GCC) (human), P25092. Nature of the test: in vitro competitive binding assay with HEK-293 GCC clone 2 cells (Indium-111 used as surrogate label; FIG. 13).
Chain of guanylyl cyclase C (GCC) (human), P25092 (P25092 24-1073 limits assumed): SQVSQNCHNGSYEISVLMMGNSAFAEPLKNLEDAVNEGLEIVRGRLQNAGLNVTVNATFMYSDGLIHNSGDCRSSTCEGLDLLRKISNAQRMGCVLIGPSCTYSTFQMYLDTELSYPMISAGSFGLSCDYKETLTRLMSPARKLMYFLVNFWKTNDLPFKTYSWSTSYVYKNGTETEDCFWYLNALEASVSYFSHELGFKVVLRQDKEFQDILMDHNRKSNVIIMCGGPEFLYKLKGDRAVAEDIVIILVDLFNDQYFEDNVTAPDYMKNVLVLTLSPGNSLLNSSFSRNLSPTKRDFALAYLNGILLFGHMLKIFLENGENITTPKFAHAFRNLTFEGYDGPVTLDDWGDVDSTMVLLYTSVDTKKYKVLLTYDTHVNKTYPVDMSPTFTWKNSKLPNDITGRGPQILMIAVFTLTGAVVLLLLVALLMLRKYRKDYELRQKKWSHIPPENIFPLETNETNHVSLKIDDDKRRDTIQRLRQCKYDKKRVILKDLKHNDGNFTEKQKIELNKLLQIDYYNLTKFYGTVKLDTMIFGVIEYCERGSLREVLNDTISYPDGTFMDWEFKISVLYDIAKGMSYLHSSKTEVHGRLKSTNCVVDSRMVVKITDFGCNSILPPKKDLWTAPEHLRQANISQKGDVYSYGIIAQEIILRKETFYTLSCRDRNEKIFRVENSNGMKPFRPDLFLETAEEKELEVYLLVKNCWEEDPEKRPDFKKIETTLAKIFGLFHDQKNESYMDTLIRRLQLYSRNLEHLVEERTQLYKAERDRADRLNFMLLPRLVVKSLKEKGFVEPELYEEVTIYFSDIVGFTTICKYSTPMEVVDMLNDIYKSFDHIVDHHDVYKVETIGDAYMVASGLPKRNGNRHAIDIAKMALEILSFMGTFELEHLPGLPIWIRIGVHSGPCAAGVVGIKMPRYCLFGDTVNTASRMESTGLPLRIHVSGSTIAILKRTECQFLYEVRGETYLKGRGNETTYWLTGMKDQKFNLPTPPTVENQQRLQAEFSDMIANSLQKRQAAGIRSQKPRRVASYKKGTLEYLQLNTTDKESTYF
Test [2] shares this target. Nature of the test: competitive binding against [111In]MLN6907 on HEK-293 GCC Clone 2 cells; DSP without chelation reaction conditions.
For test [3] the target is unchanged. Nature of the test: in vivo competitive binding against [68Ga]MLN6907 DP in tumor models with different GCC expression levels; semi-mechanistic model.
The target is the same in test [4]. Put plainly: competitive binding against [111In]MLN6907 on HEK-293 GCC Clone 2 cells; DSP treated with chelation reaction conditions (acetone:HCl, about 100 C, 10 min).
Test [5] has the same target. Nature of the test: in vivo competitive binding study with [68Ga]MLN6907 in HEK-293 GCC Clone 2 tumor-bearing mice, model-derived.

B1: MLN6907 DSP (drug substance precursor), Formula (VI): DOTA-Ahx-STp(5-18), not radiolabeled (peptide)
peptide: CCELCCNPACAGCY
modifications: not checked
In test [1], B1 registered a dissociation constant Kd of 3.2 nM. The IC50 worked out at 4.59 nM in test [2] and 4.75 nM in test [4]. The half-maximal effective concentration (EC50) in test [3] lay in the range of 97.1 to 5660 nM.

B2: [68Ga]MLN6907 DP (drug product), Formula (VIa) (peptide)
peptide: {DOTA-Ahx}-CCELCCNPACAGCY
modifications: ends and bridges not checked; also: 68Ga complexed by DOTA, cyclised (places not given here)
Turning to B2, the Bmax (antigen surface density, HEK-293 GCC Clone 2) in test [5] came out at 14000.
